Source: paper PMC5519978, “DNA binding drives the association of BRG1/hBRM bromodomains with nucleosomes”

Columns and labels:
BRG1 AT-BRD [1] = target: T1, BRG1 AT-BRD (human, UniProt P51532 1434-1569); assay: NMR titration; 25 C; FA and NMR: 50 mM K phosphate pH 7.0, 50 mM KCl, 0.5 mM EDTA, 1 mM DTT (NMR +10% D2O), 20 C (BRG1 NMR 25 C); EMSA: 150 nM DNA/NCP, 10 mM K phosphate, 10 mM KCl, on ice, 0.2x TBE gel; conditions: protein: recombinant; tags: pDEST15 or pGEX6p1 (GST); blunt
hBRM-A AT-BRD = hBRM-A AT-BRD (human, UniProt P51531 1358-1508); assay: NMR titration; 1:1 stoichiometric; FA and NMR: 50 mM K phosphate pH 7.0, 50 mM KCl, 0.5 mM EDTA, 1 mM DTT (NMR +10% D2O), 20 C (BRG1 NMR 25 C); EMSA: 150 nM DNA/NCP, 10 mM K phosphate, 10 mM KCl, on ice, 0.2x TBE gel; conditions: protein: recombinant; tags: pDEST15 (GST) with PreScission site; blunt
BRG1 AT-BRD [2] = target: T1, BRG1 AT-BRD; assay: fluorescence anisotropy; FA and NMR: 50 mM K phosphate pH 7.0, 50 mM KCl, 0.5 mM EDTA, 1 mM DTT (NMR +10% D2O), 20 C (BRG1 NMR 25 C); EMSA: 150 nM DNA/NCP, 10 mM K phosphate, 10 mM KCl, on ice, 0.2x TBE gel; conditions: protein: recombinant; tags: pDEST15 or pGEX6p1 (GST); label: 5' 6-FAM on strand 1; blunt

T1 sequence (P51532 1434-1569): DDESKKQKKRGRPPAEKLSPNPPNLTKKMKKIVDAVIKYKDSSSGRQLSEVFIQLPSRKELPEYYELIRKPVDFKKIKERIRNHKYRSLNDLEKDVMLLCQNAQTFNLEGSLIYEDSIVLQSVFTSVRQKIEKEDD
Sequence of hBRM-A AT-BRD (P51531 1358-1508): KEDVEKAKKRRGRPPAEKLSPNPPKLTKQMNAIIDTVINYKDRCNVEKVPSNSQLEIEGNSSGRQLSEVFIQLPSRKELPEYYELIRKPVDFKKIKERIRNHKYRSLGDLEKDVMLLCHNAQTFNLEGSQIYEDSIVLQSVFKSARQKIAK

B1: DNAII (dsDNA)
DNA 1: CGTAGACAGCT
DNA 2: AGCTGTCTACG
- binding result (BRG1 AT-BRD [1]): binds

B2: DNAI (dsDNA)
DNA 1: CTCAATTGGT
DNA 2: ACCAATTGAG
- binding result (BRG1 AT-BRD [1]): binds
- binding result (hBRM-A AT-BRD): binds

B3: DNAII.FA (dsDNA)
DNA 1: CGTAGACAGCTC
DNA 2: GAGCTGTCTACG
- Kd (BRG1 AT-BRD [2]): 40 ± 10 µM

B4: DNAIII (dsDNA)
DNA 1: CCTCAATTGGTCGTAG
DNA 2: CTACGACCAATTGAGG
- binding result (hBRM-A AT-BRD): binds

B5: DNAI.FA (dsDNA)
DNA 1: CCTCAATTGGTC
DNA 2: GACCAATTGAGG
- Kd (BRG1 AT-BRD [2]): 16 ± 2 µM
